Test results: the supplement of paper PMC9170038

Test system: MS2 coat protein
Assay: apparent KD of MS2 coat protein; designed switch direction (-1 OFF switch, 1 ON switch): -1; higher = weaker reporter binding
Outline: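 The reported apparent KD is a per-design median over clusters, from curve fits of normalised cluster fluorescence. Protein titrations used SNAP-549-labelled MS2 coat protein, doubled from 0.7 or 1.5 nM to 3 µM, in Tris-HCl pH 7.5 buffer with KCl, MgCl2, BSA, DTT, tRNA and Tween-20, with no input, 200 uM small-molecule ligand, or an oligonucleotide input. The RNA switches were transcribed on Illumina chips by stalled E. coli RNA polymerase.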

[1] = Eterna round: R95, input ligand: microRNA oligo, concentration not stated
[2] = Eterna round: R95, input ligand: FMN 200 uM
[3] = Eterna round: R95, input ligand: none
[4] = input ligand: microRNA oligo, concentration not stated

Sequence | apparent KD of MS2 coat protein [1] [nM] | apparent KD of MS2 coat protein [2] [nM] | apparent KD of MS2 coat protein [3] [nM] | apparent KD of MS2 coat protein (input ligand: FMN 200 uM) [nM] | apparent KD of MS2 coat protein (input ligand: none) [nM] | apparent KD of MS2 coat protein [4] [nM]
UGCAUGUGAGGAUAUGUGUACUGUCUUUUGUUUAGAUGUACACAGAAGGCACAUGAGGAUCACCCAUGUAGUAC [Ex4 - 3 - 34] (puzzle: Exclusion 4) | 59.1 |  |  |  |  | 
AAGUAUAGAGGAUAUAGUGAGUACUACAUGAGGAUCACCCAUGUUCUUCAAAGCGUACUUCUAGAAGGCUGAUAAA [EX-5 Malc#16] (puzzle: Exclusion 5) | 251 | 381 | 208 |  |  | 
AGGAAGCAAGGAUAUACGAGGAGAAGGUGUCGAUUUAAAGGACAUGAGGAUCACCCAUGUAGAAGGUGCGAGAA [JR_Exclu2_Sub048] (puzzle: Exclusion 2) | 83.6 | 110 | 95.8 |  |  | 
UACACUGCAUGAGGAUCAAACAUGAGGAUCACCCAUGUAUUGCAAGCUUUUUGCACGUCUUAUAAUUAUGUAGUGUA [Electric Eye 20 - Jieux - Sensor, turn-off variant 1] (Eterna round: R97, puzzle: Sensor, turn-off variant 1) |  |  |  | 17.2 | 17.2 | 
UGAUCAGACCGAGGAUAUACAUGUAGGACGCACGUGAGUGCGUCCAAUACAUGAGGAUCACCCAUGUAGAAGGCGGUCUGAUCU [JL ENG2 1.94] (Eterna round: R96, puzzle: Exclusion NG 2) |  |  |  | 181 | 86.7 | 76.4
GAGAAAGCAAACAGGUGAAACAUGAGGAUCACCCAUGUCCUCAUUUGCUCGUCUUAUAAGCUAUGCGAAAGCAUAGC [Mat - Sensor v3 - turn-off var 1 - Eli Mod - D54] (puzzle: Sensor v3, turn-off variant 1) | 642 | 63.5 | 58.7 |  |  | 
GGGUAGUUAGGAUAUCAGACUAGCUGCUCAACAGCAGCAGCUGAGAAGGGACUUGAGGAUCACCCAAGUGGAAG [Ceisis] (Eterna round: R97, puzzle: Exclusion 4) |  |  |  | 64.9 | 70.1 | 
CGUGUACGAGGAUAUAGAUUAGGUGACAUGAGGAUCACCCAUGUGAUCAAUCUAUUUGGUUUAGAAGGUGUACAUG [JR_Ex5_Sub052] (Eterna round: R97, puzzle: Exclusion 5) |  |  |  | 15 | 14 | 
GCCAGAGCAGGAUAUCUAAUGUAUCACAUGAGGAUCACCCAUGUCCAGCGAAAGCUGGAGGGAGAAGGGCUCUGGC [Fiskers Ex 5 - 20] (puzzle: Exclusion 5) | 105 | 49.9 | 106 |  |  | 
GCGCCAUCGUGAGAUGGCGUAACUACAUGAGGAUCACCCAUGUAGGAUAUCGAUUGCUUUGCAGUCGAGAAGGGCGAGGGAUUU [JL ENG3 3.89] (Eterna round: R96, puzzle: Exclusion NG 3) |  |  |  | 18.1 | 17.6 | 13.2
GGAGGAACCGGAGGAUAUUGAUUUAAGCGGUUACGCAAGACAUGAGGAUCACCCAUGUGUCCGGACGAGAAGGCCGAAGAAGAA [ExNG2 3rd] (Eterna round: R96, puzzle: Exclusion NG 2) |  |  |  | 43.7 | 38.9 | 30.6
GAUGGACAUGAGGAUCACCCAUGUAAGGAUAUACGGUUGGUAGAGAGAGAGAGAAAUGGUAGAAGGUACGGAAA [JR_Exclu1_Sub051] (puzzle: Exclusion 1) | 46.6 | 36.5 | 50.3 |  |  | 
GGAAGGUCAGGAUAUGCGAGGGAGUGGGAAGUAGCAUGGUAGCAGAAGGGACAUGAGGAUCACCCAUGUUAGGA [JR_Exclu4_Sub0102] (puzzle: Exclusion 4) | 28.7 | 35.2 | 40.7 |  |  | 
GAUAUGGGAGUUAGGAUAUGUCGCCCGAACGGGUAAUAGAAGGGACUUGAGGAUCACCCAAGUCAUAAAGAAUA [Rainan] (Eterna round: R97, puzzle: Brourd's mod of Exclusion 4) |  |  |  | 11.6 | 14.6 | 
AAUACACAUGAGGAUCACCCAUGUUAGGAUAUUAGCGGGCAGACAGACAGACAGACGAUGAGAAGGAACAGGAA [Excls1-VII] (puzzle: Exclusion 1) | 22.3 | 23.3 | 27.7 |  |  | 
GCAAGAAUAGGAUAUACACCAUGCCAGCUUCUAUACAACGCACAUGAGGAUCACCCAUGUAGAAGGGUUCUCUG [Exclusion-2-#12] (Eterna round: R97, puzzle: Exclusion 2) |  |  |  | 225 | 262 | 
UCCCAGUGAGGAUAUACUUAUCGGGUCGGUUAGCGAGGAAAACUUGAGGAUCACCCAAGUAGAAGGCGCAACGU [Isinar] (Eterna round: R97, puzzle: Exclusion 2) |  |  |  | 35.1 | 29.6 | 
AAAUGCAAGCAAAGAUUCUACAUGAGGAUCACCCAUGUGCUCGUCUUAUAAAGUACUAUCACGAAAGUGAUAGUACA [Sensor 3, v1 - 34] (puzzle: Sensor v3, turn-off variant 1) | 88.3 | 18.2 | 17.6 |  |  | 
GUCAUGUUAGGAUAUCUAACAUGUGACUUCGGUCACUGUCCAGAGAAGGAACAUGAGGAUCACCCAUGUUGGAC [Ex4-3: 56] (Eterna round: R96, puzzle: Exclusion 4) |  |  |  | 16.5 | 18.3 | 13.9
AAGACACAUGAGGAUCACCCAUGUGAGGAUAUUCGAUGCUGAGCGUAAGCUUAGUAUCGGAGAAGGUACAUAGG [Salishxclusion 9 - Jieux - Exclusion 1] (Eterna round: R97, puzzle: Exclusion 1) |  |  |  | 77.2 | 66.6 | 
CGAUGUGGAGUGAGGAUAUCGUGUUCGAAAGAACGUGAGAAGGCACAUGAGGAUCACCCAUGUGAUUCAUGUCG [Omei Ex4B A7] (Eterna round: R97, puzzle: Brourd's mod of Exclusion 4) |  |  |  | 40.9 | 26.2 | 
CCUCCACAUGAGGAUCACCCAUGUCAGGAUAUCGUGUGUGCGUUUUCGGUCUUUCGUGCGAGAAGGGACGUCUG (puzzle: Exclusion 1) | 52.7 |  |  |  |  | 
GUUAUGCGGCAGGAUAUCCAUCCGCGGUAUGAUGGAGAAGGGCCGACAUGAGGAUCACCCAUGUGCGUCCUAGG [jl-ex6-4.49 ViennaUCT mod] (Eterna round: R97, puzzle: Exclusion 6) |  |  |  | 155 | 53 | 
GUGUAGUGAGGAUAUACAUGAGGAUCACCCAUGUGAAUAAGAUAGAAUAAGAUAAAGUGUAGAAGGCAUAGUGU [Excluse me!!! 21 - Jieux - Exclusion 3] (puzzle: Exclusion 3) | 39.3 |  |  |  |  | 
GAGAAGGUAGGAUAUACGAAUAAAGAGGGUAGGAAUAAGACACAUGAGGAUCACCCAUGUAGAAGGACCAAGAG [Mat - Exclusion 2 - Mod of my Tesla design - D50] (puzzle: Exclusion 2) | 20.3 | 37.1 | 21.4 |  |  | 
